Measured values published in publication PMC10928576, “Cpne7 deficiency induces cellular senescence and premature aging of dental pulp” (Aging Cell, 2023).

Key:
[1] = system: hDPCs; assay: γ-H2AX immunofluorescence in hDPCs; type: cell-based, human; settings: rCPNE7 after 30 min of 1 mM H2O2, vs H2O2 only
Method: Human DPCs and tissue sections were treated with phosphate‐buffered saline (PBS) and 0.5% Triton X‐100 for permeabilization. After washing and blocking, cells and tissue samples were incubated overnight at 4°C with γ‐H2AX (1:100, Cell Signaling Technology, #9718) and CPNE7 (1:100) in blocking buffer (PBS and 2% bovine serum albumin). Subsequently, FITC‐conjugated anti‐rabbit secondary antibody (1:500) or Cy3‐conjugated anti‐rabbit (1:500) was applied. Cells were visualized using confocal microscopy (LSM980, Zeiss, Germany). The chromosomal DNA in the nucleus was stained with 4′,6‐diamidino‐2‐phenylindole (DAPI). The microtubules were detected using α‐TUBULIN antibodies (1:1000; Santa Cruz), and F‐ACTIN was stained with Alexa Fluor 488 or rhodamine‐conjugated phalloidin (Invitrogen). Flag‐tagged rCPNE7 was detected using Flag‐antibodies (1:500; Sigma–Aldrich), and TAU was detected by TAU antibodies (1:100; CUSABIO). Immunofluorescence staining of TAU, F‐ACTIN, and α‐TUBULIN was analyzed using the IMARIS cell imaging software (Bitplane) (n = 3, each group).

[2] = system: shCpne7-transfected hDPCs; assay: DNA damage rescue model in shCpne7-transfected hDPCs (western blot); type: cell-based, human; settings: hDPCs treated after shCpne7 transfection; rCPNE7 100 ng/mL or CPNE7-DP 10 μg/mL
Method: The hDPCs were obtained from the Seoul National University Dental Hospital, and the experimental protocol was accepted by the Institutional Review Board of the Seoul National University (S‐D20140007). Informed consent was obtained from patients. Human DPCs were isolated and used in an in vitro experiment as described previously (Jung et al., [2011]). Human DPCs were cultured in minimum essential medium α (Gibco BRL, 12571063) supplemented with 10% heat‐inactivated fetal bovine serum (FBS; Gibco BRL, 16000044) and antibiotic‐antimycotic (Gibco BRL, 15240062) at 37°C in an atmosphere with 5% CO2. The cells were then treated with recombinant CPNE7 protein (rCPNE7, 100 ng/mL; Origene, TP306428) or CPNE7‐derived peptide (CPNE7‐DP, 10 μg/mL). After oxidative stress‐induced DNA damage using Hydrogen Peroxide Solution (H2O2; Merck, H1009) rCPNE7 was treated after replacement with a new culture medium (α‐MEM). […]
Cellular proteins (30 μg) were separated by 10% or 15% sodium dodecyl sulfate‐polyacrylamide gel electrophoresis (SDS‐PAGE) and transferred to polyvinylidene fluoride (PVDF) membranes. […] Labeled protein bands were detected under an enhanced chemiluminescence system (Amersham Biosciences/GE Healthcare). […] Semi‐quantitative analyses were performed using Image J software (National Institute of Health, MD, USA) (n = 3, each group).

[3] = system: hDPCs; assay: Senescence β-galactosidase (SA-β gal) staining of H2O2-treated hDPCs; type: cell-based, human
Method: (§1) The hDPCs were obtained from the Seoul National University Dental Hospital, and the experimental protocol was accepted by the Institutional Review Board of the Seoul National University (S‐D20140007). Informed consent was obtained from patients. Human DPCs were isolated and used in an in vitro experiment as described previously (Jung et al., [2011]). Human DPCs were cultured in minimum essential medium α (Gibco BRL, 12571063) supplemented with 10% heat‐inactivated fetal bovine serum (FBS; Gibco BRL, 16000044) and antibiotic‐antimycotic (Gibco BRL, 15240062) at 37°C in an atmosphere with 5% CO2. The cells were then treated with recombinant CPNE7 protein (rCPNE7, 100 ng/mL; Origene, TP306428) or CPNE7‐derived peptide (CPNE7‐DP, 10 μg/mL). After oxidative stress‐induced DNA damage using Hydrogen Peroxide Solution (H2O2; Merck, H1009) rCPNE7 was treated after replacement with a new culture medium (α‐MEM).
Human DPCs were fixated with Fixative Solution (Cell Signaling Technology, #9860) at room temperature for 15 min. Rinsed twice with PBS, the cells were then stained with β‐Galactosidase Staining Solution (Cell Signaling Technology, #9860) at 37°C overnight in a dry incubator (no CO2). Cells were observed using light microscopy (Primovert, Zeiss, Germany) (n = 3, each group).

[4] = system: bone marrow stem cells (BMSCs); assay: Mouse subcutaneous ex vivo transplantation (HA/TCP, PCL), BMSCs; type: in vivo, immunocompromised mice; settings: rCPNE7 treatment
Method: (§2) The hDPCs, ADSCs, BMSCs, GFs, and PDLSCs (2 × 10^6) were mixed with 100 mg of hydroxyapatite/tricalcium phosphate ceramic powder (Zimmer) alone or with rCPNE7 (100 ng/mL) in an 0.5% fibrin gel. The poly ε‐caprolactone (PCL: Mw 80,000, Sigma–Aldrich, Oakville, ON, Canada) was wrapped around the mixed cells and transplanted subcutaneously into immunocompromised mice (NIHbg‐nu‐xid; Harlan Laboratories) for 6 weeks (n = 3, each group).

[5] = system: hDPCs; assay: Comet assay; type: cell-based, human; settings: 24 h, 1 mM H2O2 + rCPNE7, vs H2O2 only, n = 3
Method: Human DPCs were combined with Comet Agarose (Abcam, ab238544) at 1/10 ratio (v/v), mixed by pipetting, and immediately transferred onto the top of the Comer Agarose Base Layer Slide (Abcam, ab238544). Set horizontally, the slides were incubated at 4°C in the dark for 15 min, and placed in a small basin/container containing pre‐chilled Lysis Buffer (Abcam, ab238544). They were immersed in the buffer for 1 h at 4°C in the dark. After 1 h, aspiration of the Lysis Buffer from the container was done and replaced with a pre‐chilled Alkaline Solution (Abcam, ab238544), followed by electrophoresis chamber filled with the Alkaline Electrophoresis Solution. Voltage was applied to the chamber for 30 min at 1 volt/cm. The slides were then rinsed with pre‐chilled DI H2O and replaced with cold 70% Ethanol for 5 min. The slide was removed from the 70% Ethanol and allowed to air dry. Once the slide was completely dry, staining with Vista Green DNA Dye (Abcam, ab238544) was done at room temperature for 15 min. Cells were visualized using confocal microscopy (LSM980, Zeiss, Germany) (n = 3, each group).

[6] = system: hDPCs; assay: Live-cell imaging of intracellular ROS (DCFDA); type: cell-based, human; settings: rCPNE7 treatment 15 min after H2O2 treatment, n = 3
Method: Human DPCs were stained with DCFDA‐cellular ROS assay kit (Abcam, ab113851) for 40 min at 37°C in a humidified environment at 5% CO2. Then, live cell imaging was performed with a filter set appropriate for fluorescein (FITC) (n = 3, each group). Low light conditions were maintained to avoid photobleaching and photo‐oxidation of DCF.

[7] = system: hDPCs
[8] = system: periodontal ligament stem cells (PDLSCs); assay: Mouse subcutaneous ex vivo transplantation (HA/TCP, PCL), PDLSCs; type: in vivo, immunocompromised mice
Method: as §2
(§3) Figure S1. (A) The gingival fibroblasts (GFs) or (B) periodontal ligament stem cells (PDLSCs) were mixed with 100㎎ of hydroxyapatite/tricalcium phosphate (HA) particles alone (control) or with rCPNE7 in a poly ε-caprolactone (PCL) spaces and transplanted subcutaneously into immunocompromised mice for 6 weeks. White arrows indicate newly formed mineralized tissues. Representative immunofluorescence images of DSP (red) were observed (n=3). DAPI (blue) was counterstained to indicate the nucleus. Scale bars: 50㎛.

[9] = system: human dental pulp cells (hDPCs); assay: Live-cell imaging of hDPC morphology with or without rCPNE7; type: cell-based; settings: rCPNE7 100 ng/mL for 24 h, then differentiation media 7 days, vs control, n = 3
Method: as §1
The morphologic change of hDPCs treated with or without rCPNE7 was measured by live‐cell imaging (n = 3, each group). After being treated with rCPNE7 for 24 h, the cells were differentiated for 7 days and scanned for 2 days. Bright‐field images of the cells were acquired using a confocal laser scanning microscopy system (LSM980, Zeiss, Germany). […] Timelapse images collected from a single Z plane were recorded at 8‐min intervals.

[10] = system: adipogenic stem cells (ADSCs); assay: Mouse subcutaneous ex vivo transplantation (HA/TCP, PCL), ADSCs; type: in vivo, immunocompromised mice; settings: adipose stem cells, rCPNE7 treatment
Method: as §2

[11] = system: gingival fibroblasts (GFs); assay: Mouse subcutaneous ex vivo transplantation (HA/TCP, PCL), GFs; type: in vivo, immunocompromised mice
Method: as §2, §3

[12] = system: hDPCs; assay: γ-H2AX / P21 western blot in H2O2-treated hDPCs; type: cell-based, human; settings: H2O2 + rCPNE7, after 48 h, vs H2O2 only
Method: Cellular proteins (30 μg) were separated by 10% or 15% sodium dodecyl sulfate‐polyacrylamide gel electrophoresis (SDS‐PAGE) and transferred to polyvinylidene fluoride (PVDF) membranes. The PVDF membranes were blocked for 1 h with 5% nonfat dry milk in Tris‐buffered saline containing 0.1% Tween 20 (TBS‐T) and incubated overnight at 4°C with the primary antibody diluted in TBS‐T (1:5000). After washing, membranes were incubated for 1 h with the appropriate secondary antibodies. Labeled protein bands were detected under an enhanced chemiluminescence system (Amersham Biosciences/GE Healthcare). All reactions were performed in triplicate. Semi‐quantitative analyses were performed using Image J software (National Institute of Health, MD, USA) (n = 3, each group).

[13] = system: hDPCs; assay: Mouse subcutaneous ex vivo transplantation (HA/TCP, PCL), hDPCs; parameters: species or system human cells in immunocompromised mice; settings: hDPCs + 100 mg HA/TCP with rCPNE7 100 ng/mL in PCL, 6 weeks, vs control, n = 3
Method: as §2

[14] = system: dentinal damage sites; settings: treated onto dentinal damage sites; ref Lee et al., [2020]; cited from earlier work
Text: However, little is known about how odontoblasts age and survive through the days beyond entering dormancy, which actually comprise the major part of their life span. Aging is defined as a gradual loss of physiologic tissue integrity and impaired function, ultimately leading to cell death. Aged pulp is characterized by lower cell population, pulp stem cell tiredness, and, overall, reduced responsiveness to external stimuli (Bernick & Nedelman, [1975]). It has been reported that one of the survival mechanisms of aging odontoblasts is autophagy, which involves degradation and turnover of cellular ...

[15] = system: hDPCs; assay: RNA-sequencing of rCPNE7-treated hDPCs; type: cell-based, human; settings: n = 3
Method: The isolated RNA (n = 3, each group) was shipped to Macrogen (Seoul, Korea) for the library preparation, sequencing, and analysis of data. The cDNA Library for sequencing was prepared using TruSeq Stranded mRNA LT Sample Prep Kit. Total RNA was randomly fragmented, converted to complementary DNA (cDNA), and amplified according to the manufacturer's protocol. The cDNA was then ligated to sequencing adapters. Sequencing was performed on Illumina's HiSeq2500 platform. HISAT2 was used for mapping trimmed reads to reference genome (UCSC mm10), and the transcript assembly was performed using StringTie. To identify differentially expressed genes (DEGs), the expression profile was calculated for each sample and normalized to FPKM. KEGG database and Gene Ontology were used to perform functional annotation and gene‐set enrichment analysis on DEGs for known gene annotation. Genes with |fc| 1.5 and independent T‐test raw p‐value <0.05 were counted as significant.

B1: rCPNE7: recombinant CPNE7 protein (Origene, TP306428) (protein, UniProt Q9UBL6 1-633, looked up)
Copine-7: MSAGSERGAAATPGGLPAPCASKVELRLSCRHLLDRDPLTKSDPSVALLQQAQGQWVQVGRTEVVRSSLHPVFSKVFTVDYYFEEVQRLRFEVYDTHGPSGFSCQEDDFLGGMECTLGQPAQKWLLQVVMRVSVDVLGPAGHCAKHFLCCTESSHLARTGPSFLLRYDDLCLPWATAGAVRWWTCRGGHTQGWQIVAQKKVTRPLLLKFGRNAGKSTITVIAEDISGNNGYVELSFRARKLDDKDLFSKSDPFLELYRVNDDQGLQLVYRTEVVKNNLNPVWEAFKVSLSSLCSCEETRPLKCLVWDYDSRGKHDFIGEFSTTFEEMQKAFEEGQAQWDCVNPKYKQKRRSYKNSGVVVLADLKFHRVYSFLDYIMGGCQIHFTVAIDFTASNGDPRNSCSLHYINPYQPNEYLKALVSVGEICQDYDSDKRFSALGFGARIPPKYEVSHDFAINFNPEDDECEGIQGVVEAYQNCLPRVQLYGPTNVAPIISKVARVAAAEESTGKASQYYILLILTDGVVTDMADTREAIVRASRLPMSIIIVGVGNADFTDMQVLDGDDGVLRSPRGEPALRDIVQFVPFRELKNASPAALAKCVLAEVPKQVVEYYSHRGLPPRSLGVPAGEASPGCTP
accumulation of DNA damage (γ-H2AX immunofluorescence) [1]: rarely observed | expression level of γ-H2AX (western blot) [2]: evidently diminished | progress of cellular senescence (SA-β gal) ([3]; hDPCs in growth media containing rCPNE7 for 72 h after oxidative stress (1 mM H2O2) for an hour, vs control): progressed more slowly than the control | number of SA-β gal-positive dental pulp cells ([3]; hDPCs passage 3, 1 mM H2O2 + rCPNE7, an hour later, vs H2O2 only, n = 3): significantly decreased | odontoblastic differentiation upon treatment [4]: did not undergo odontoblastic differentiation | length of comet tail (fragmented DNA) [5]: much shorter | intracellular ROS level (DCFDA fluorescence) [6]: gradually decreased back to the normal level | cell viability (WST-8) ([7]; rCPNE7 after 30 min treatment of 1 mM or 2 mM H2O2, 48 h, vs H2O2 only): cell viability was higher | cell-to-cell contact (light microscopy) ([7]; rCPNE7 after 30 min treatment of H2O2, vs H2O2 only): more organized | amount of newly formed DSP-positive mineralized tissue ([8]; PDLSCs + HA/TCP with rCPNE7 in PCL spaces, 6 weeks, vs control, n = 3): slightly greater amount | odontoblastic differentiation upon treatment ([8]; PDLSCs, rCPNE7 treatment): did not undergo odontoblastic differentiation | cellular process morphology [9]: elongation of a uni‐directional cellular process was observed | odontoblastic differentiation upon treatment [10]: did not undergo odontoblastic differentiation | amount of newly formed DSP-positive mineralized tissue ([11]; GFs + HA/TCP with rCPNE7 in PCL spaces, 6 weeks, vs control, n = 3): slightly greater amount | odontoblastic differentiation upon treatment ([11]; GFs, rCPNE7 treatment): did not undergo odontoblastic differentiation | protein expression level of γ-H2AX (western blot) [12]: hardly detected | odontoblast-like differentiation and dentin-like tissue-forming capacity ex vivo [13]: enhanced odontoblast‐like differentiation and dentin‐like tissue‐forming capacity | dentin formation at dentinal damage sites [14]: tertiary dentin formation of tubular nature | mRNA expression levels of histone and chromatin-related genes [15]: significantly increased
